In patent US20240116985A1 (published 2024):
Starred links: 1 amine or outer side, 2 acyl side, 3 side chain; linkers in the order of their positions; H or OH if unused. Positions of bridges follow the written chain, without caps; N, C: chain ends. Non-standard residues stand in square brackets, D forms with d. Primed or numbered codes have the meaning given here. PyrS2″ = (S)-3-amino-1-((pent-4-en-1-yloxy)carbonyl)pyrrolidine-3-carboxylic acid (stapling residue), C=CCCCOC(=O)N1CC[C@@](N[*:1])(C(=O)[*:2])C1; SeN″ = (S)-5-(((allyloxy)carbonyl)(methyl)amino)-2-amino-2-methylpentanoic acid (stapling residue), C=CCOC(=O)N(C)CCC[C@](C)(N[*:1])C(=O)[*:2]; B5(4) = 2,2-bis(4-pentenyl)glycine = 2-amino-2-(pent-4-en-1-yl)hept-6-enoic acid (stitching residue), C=CCCCC(CCCC=C)(N[*:1])C(=O)[*:2]; B5(20) = 2-amino-2-(pent-4-en-1-yl)hept-6-enoic acid = bis(4-pentenyl)glycine, stitching residue, C=CCCCC(CCCC=C)(N[*:1])C(=O)[*:2]; B5(21) = 2-amino-2-(pent-4-en-1-yl)hept-6-enoic acid, bis(4-pentenyl)glycine (stitching residue), C=CCCCC(CCCC=C)(N[*:1])C(=O)[*:2]; B5(6) = 2-amino-2-(pent-4-en-1-yl)hept-6-enoic acid (bis(4-pentenyl)glycine), stitching residue, C=CCCCC(CCCC=C)(N[*:1])C(=O)[*:2]; PyrS2 = (S)-3-amino-1-((pent-4-en-1-yloxy)carbonyl)pyrrolidine-3-carboxylic acid, C=CCCCOC(=O)N1CC[C@@](N[*:1])(C(=O)[*:2])C1; PyrS = (S)-1-((allyloxy)carbonyl)-3-aminopyrrolidine-3-carboxylic acid, C=CCOC(=O)N1CC[C@@](N[*:1])(C(=O)[*:2])C1; Phe(2-CONH2) = NC(=O)c1ccccc1C[C@H](N)C(=O)O; Phe(2-Cl) = N[C@@H](Cc1ccccc1Cl)C(=O)O; Phe(2-OMe) = COc1ccccc1C[C@H](N)C(=O)O; Phe(4-F) = N[C@@H](Cc1ccc(F)cc1)C(=O)O; Bta = N[C@@H](Cc1csc2ccccc12)C(=O)O; αAllylPro = C=CC[C@@]1(C(=O)O)CCCN1; tBuAla = CC(C)(C)C[C@H](N)C(=O)O; R8 = C=CCCCCCC[C@@](C)(N)C(=O)O; 3Thi = N[C@@H](Cc1ccsc1)C(=O)O; Cha = N[C@@H](CC1CCCCC1)C(=O)O; S8 = C=CCCCCCC[C@](C)(N)C(=O)O; Thr(ol) = C[C@@H](O)[C@H](N)CO

T1: full-length beta-Catenin (Uniprot ID P35222) (Homo sapiens (Human), UniProt P35222 2-781)
T1 construct: Used full-length in both the FP and the AlphaScreen assay; also called B-Catenin; bCat
T1 sequence: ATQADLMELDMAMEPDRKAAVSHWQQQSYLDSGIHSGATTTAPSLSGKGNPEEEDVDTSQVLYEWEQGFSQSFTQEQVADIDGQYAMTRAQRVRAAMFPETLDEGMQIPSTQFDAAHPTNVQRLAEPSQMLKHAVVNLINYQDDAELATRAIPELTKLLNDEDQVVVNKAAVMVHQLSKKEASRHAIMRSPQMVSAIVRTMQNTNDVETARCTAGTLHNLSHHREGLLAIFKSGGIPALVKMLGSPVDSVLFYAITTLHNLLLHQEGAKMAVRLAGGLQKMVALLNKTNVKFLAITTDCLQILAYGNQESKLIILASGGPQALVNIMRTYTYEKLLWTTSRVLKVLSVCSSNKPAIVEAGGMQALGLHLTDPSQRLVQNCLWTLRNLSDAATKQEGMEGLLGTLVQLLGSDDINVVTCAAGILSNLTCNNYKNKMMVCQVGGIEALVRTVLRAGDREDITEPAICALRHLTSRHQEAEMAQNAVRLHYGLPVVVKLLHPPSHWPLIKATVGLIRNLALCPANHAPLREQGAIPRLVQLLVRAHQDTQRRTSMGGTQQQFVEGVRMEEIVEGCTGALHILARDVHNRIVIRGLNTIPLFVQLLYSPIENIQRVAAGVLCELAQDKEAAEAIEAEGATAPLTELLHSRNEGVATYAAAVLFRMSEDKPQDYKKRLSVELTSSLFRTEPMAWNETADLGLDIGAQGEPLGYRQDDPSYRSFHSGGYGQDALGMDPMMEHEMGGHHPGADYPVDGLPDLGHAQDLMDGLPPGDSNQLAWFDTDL

T2: full-length beta-Catenin (Uniprot ID P35222) (Homo sapiens (Human), UniProt P35222 1-781)
T2 construct: also called bCat; B-Catenin
T2 sequence: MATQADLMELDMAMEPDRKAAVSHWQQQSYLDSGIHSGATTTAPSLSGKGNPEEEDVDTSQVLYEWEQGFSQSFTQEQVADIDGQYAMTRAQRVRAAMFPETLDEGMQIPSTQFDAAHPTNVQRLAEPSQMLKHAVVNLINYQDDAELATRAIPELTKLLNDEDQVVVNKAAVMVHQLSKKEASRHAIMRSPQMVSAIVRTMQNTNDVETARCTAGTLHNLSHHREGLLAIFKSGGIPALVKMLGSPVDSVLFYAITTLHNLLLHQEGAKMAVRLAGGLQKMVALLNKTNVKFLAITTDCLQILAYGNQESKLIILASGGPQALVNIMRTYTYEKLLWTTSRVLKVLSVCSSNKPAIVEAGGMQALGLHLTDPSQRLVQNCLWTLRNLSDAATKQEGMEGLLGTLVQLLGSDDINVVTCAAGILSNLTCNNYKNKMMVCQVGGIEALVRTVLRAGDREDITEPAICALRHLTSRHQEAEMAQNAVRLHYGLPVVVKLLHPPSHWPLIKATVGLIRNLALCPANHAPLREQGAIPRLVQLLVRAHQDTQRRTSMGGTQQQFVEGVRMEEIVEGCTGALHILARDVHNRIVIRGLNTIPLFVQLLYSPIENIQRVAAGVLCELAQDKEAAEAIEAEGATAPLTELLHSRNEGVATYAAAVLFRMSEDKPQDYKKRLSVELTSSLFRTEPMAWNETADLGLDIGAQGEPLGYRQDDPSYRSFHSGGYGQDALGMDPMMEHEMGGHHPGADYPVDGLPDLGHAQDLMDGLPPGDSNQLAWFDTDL

T3: B-cat-Halo (NanoBRET construct expressed in HEK293 cells) (UniProt P35222 1-781)
T3 sequence (looked up): T2 sequence

T4: B-cat-Halo (UniProt P35222 1-781)
T4 sequence (looked up): T2 sequence

B1: I-78 (peptide)
peptide: Ac-FDA[R8]DDAA[Phe(4-F)]V[PyrS]FWQ-NH2
modifications: staple 4-11
notes: Stapled peptide; also called Ac-Phe-Asp-Ala-R8-Asp-Asp-Ala-Ala-4FF-Val-PyrS-Phe-Trp-Gln-NH2
B2: I-53 (peptide)
peptide: Ac-[αAllylPro]DA[B5(21)]DDAAFV[SeN″]FWQ-NH2
modifications: staple 1-4, 4-11; also: earlier-eluting HPLC isomer, E/Z not given here
notes: Stapled (stitched) peptide; also called Ac-PL3-Asp-Ala-B5-Asp-Asp-Ala-Ala-Phe-Val-SeN-Phe-Trp-Gln-NH2
B3: I-52 (peptide)
peptide: Ac-[αAllylPro]DA[B5(20)]DDAAFV[S8]FWQ-NH2
modifications: staple 1-4, 4-11
notes: Stapled (stitched) peptide; also called Ac-PL3-Asp-Ala-B5-Asp-Asp-Ala-Ala-Phe-Val-S8-Phe-Trp-Gln-NH2

Each binder was assayed against T1, full-length beta-Catenin (Uniprot ID …) (assay: fluorescence polarization competition; full-length beta-catenin, 5FAM-TCF4(10-53) probe).
Protocol: (§1) The plate was incubated protected from light for 60 minutes at 20° C. prior to read. Reads were performed on a CLARIOstar plate reader (BMG Labtech) in duplicate, and data were fitted to a 1:1 binding model with hill slope using an in-house script. All provided concentrations are final concentrations.

| EC50 [µM] | Binder |
| --- | --- |
| 5 | B1 |
| 5 | B2 |
| 3.2 | B3 |

The binders below were run against T2, full-length beta-Catenin (Uniprot ID …) (assay: FP competition: full-length beta-catenin 10 nM + 5FAM-TCF4(10-53) 10 nM).
Protocol: as §1

| IC50 [nM] | Binder |
| --- | --- |
| 20 | Ac-[αAllylPro]DI[B5(20)]DEAAFN[S8][Phe(2-OMe)][Bta]H-NH2 (staple 1-4, 4-11, Stapled peptide composition) [I-512] |
| 30 | Ac-[αAllylPro]DI[B5(20)]DEAAFN[S8][Phe(2-CONH2)][Bta]H-NH2 (staple 1-4, 4-11, Stapled peptide composition) [I-514] |
| 25 | Ac-[αAllylPro]DL[B5(6)]DEAAFQ[S8]F[Bta]H-NH2 (staple 1-4, 4-11, Stapled peptide composition) [I-506] |

What follows are binders tested against T1, full-length beta-Catenin (Uniprot ID …) (assay: AlphaScreen competition; full-length beta-catenin, biotin-TCF4(10-53) probe).
Protocol: as §1, with “Equal volume of the titrated peptide was added to the” for “The”, “and” for “was”, “incubated for 15 minutes at 20° C. Then 4 uL of donor and 4 uL acceptor beads at 10 ug/mL were added to the plate, for a 16 uL reaction pool and” for “incubated”

| EC50 [nM] | Binder |
| --- | --- |
| 7480 | B1 |
| 1140 | B2 |
| 158 | B3 |

The binders below were run against T3, B-cat-Halo (NanoBRET construct …) (assay: cell-based or functional assay).

| NanoBRET Abs IC50 [µM] | Binder |
| --- | --- |
| 12.3 | Ac-[αAllylPro]DI[B5(20)]DEAAFN[S8][Phe(2-OMe)][Bta]H-NH2 (staple 1-4, 4-11, Stapled peptide composition) [I-512] |
| > 20 | Ac-[αAllylPro]DI[B5(20)]DEAAFN[S8][Phe(2-CONH2)][Bta]H-NH2 (staple 1-4, 4-11, Stapled peptide composition) [I-514] |
| 8.9 | Ac-[αAllylPro]DL[B5(6)]DEAAFQ[S8]F[Bta]H-NH2 (staple 1-4, 4-11, Stapled peptide composition) [I-506] |

These binders were tested against T4, B-cat-Halo (assay: cell-based or functional assay).

| NanoBRET Abs IC50 (uM); B-cat-Halo / TCF4-Luc in HEK293 cells [µM] | Binder |
| --- | --- |
| 38.8 | Ac-[αAllylPro]D[Cha][B5(4)]DDAAFL[PyrS2″][Phe(2-Cl)][Bta][Thr(ol)] (staple 1-4, 4-11) [I-1307] |
| 9.1 | Ac-[αAllylPro]D[tBuAla][B5(4)]DDAAFF[PyrS2][3Thi][Bta][Thr(ol)] (staple 1-4, 4-11) [I-1303] |
| 28.6 | Ac-[αAllylPro]D[tBuAla][B5(4)]DTAAFT[PyrS2″][Phe(2-Cl)][Bta][Thr(ol)] (staple 1-4, 4-11) [I-1309] |
| 11.9 | Ac-[αAllylPro]D[tBuAla][B5(4)]DDAAFT[S8][Phe(2-Cl)][Bta][Thr(ol)] (staple 1-4, 4-11) [I-1308] |
| > 20 | Ac-[αAllylPro]D[Cha][B5(4)]DTAAFT[PyrS2″][Phe(2-Cl)][Bta][Thr(ol)] (staple 1-4, 4-11) [I-1310] |
| 20.6 | Ac-[αAllylPro]D[tBuAla][B5(4)]DDAAFF[PyrS2″][Phe(2-Cl)][Bta][Thr(ol)] (staple 1-4, 4-11) [I-1311] |
| 33.6 | Ac-[αAllylPro]N[tBuAla][B5(4)]DDAAFL[PyrS2][3Thi][Bta][Thr(ol)] (staple 1-4, 4-11) [I-1304] |
